Results published in patent US11155643B2, “Glucan kinases and methods for processing starch using the same” (University of Kentucky Research Foundation, priority 2017, dated 2021).
Numbering of substitutions follows the chain as printed. In names and notes the source's numbering stands. Entries after “also recorded” stand apart in the source; their conditions may differ.

What was measured:
[1] = target: T1, Cyanidioschyzon merolae Cm-GWD DUF domain (CmGWD DUF, amino acids 345-469; full length Cm-GWD SEQ ID NO: 2) (Cyanidioschyzon merolae, UniProt M1VD00); test: differential scanning fluorimetry (DSF)-based thermal shift assay, oligosaccharide binding
T1 construct: recombinant, purified
T1 sequence (M1VD00 345-469): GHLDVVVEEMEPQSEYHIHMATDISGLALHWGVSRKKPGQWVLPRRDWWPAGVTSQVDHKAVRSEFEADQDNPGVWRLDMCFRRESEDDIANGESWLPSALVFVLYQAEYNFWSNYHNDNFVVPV
Method: FIGS. 5A-C show graphs and images illustrating expression and thermal shift of various domains of the Cm-GWD. (A) is an image showing the expression of the Cm-GWD DUF domain constructs with varying N- and C-termini. (B) is an image showing the expression of individual N-terminal domains of Cm-GWD.
To characterize the enzymes' structure, the architecture of the dikinases was first analyzed. The sequences of the dikinases were analyzed using bioinformatic tools. The dikinase primary sequences from multiple species were analyzed to predict sequence conservation, secondary structure, regions of disorder, and regions of hydrophobicity in order to define the optimal constructs for recombinant protein expression of Cm-GWD. At-GWD and PWD have been reported to have cTP, one or two CBM domains, and a dikinase domain (FIG. 4). […]
The binding of purified proteins to oligosaccharides was measured using a differential scanning fluorimetry (DSF)-based thermal shift assay. […] As a proof of principle, the binding of the Cm-GWD DUF to the oligosaccharide maltohexaose and to maltose was measured, as a negative control. […] The change in Tm was monitored with increasing concentration of oligosaccharide (FIG. 5C). […]

[2] = starch-phosphorylation assay (33P-β-ATP radio-label incorporation into starch); format: biochemical, Arabidopsis; settings: for ability to phosphorylate starch (specific activity): FIG. 2, FIG. 3
Method: FIG. 8 includes the framework for the C6 versus C3 assay. To label the C6-position, non-phosphorylated starch is incubated in the presence of GWD and ^33P-β-ATP, the protein and label are washed away, and the starch is incubated in the presence of ATP and PWD. The C3 position is labeled in a similar manner, except ^33P-β-ATP is used with PWD. These products are then used as substrates in dephosphorylation assays. A starch-phosphorylation assay is routinely used in the lab to measure the specific activity of protein constructs. This assay has 3 benefits: it utilizes an endogenous substrate, measures the amount of phosphate added to glucose (dikinase activity), and allows comparison of addition to the C3- and C6-positions (site-specific activity) (FIG. 8). Phosphate-free starch was isolated from plants lacking the dikinase GWD, and the sample dialyzed to remove free phosphate. To measure dikinase activity, this phosphate-free starch was used as the substrate. The starch was incubated with the dikinase in question along with ^33P-β-ATP, the ^33P-β-ATP and dikinase was washed out, and radio-label incorporation into the starch was measured.

[3] = glucose release from native starch treated with combinations of amylases, dikinase and phosphatase; format: biochemical, Arabidopsis
Method: FIG. 7 includes a plot showing the glucose released for native Arabidopsis starch that was incubated at 25° C. for 60 minutes with combinations of amylases (BAM+ISA), dikinase (At-GWD), or phosphatase (At-SEX4), undigested starch was pelleted with a high-speed spin, the supernatant sugars were hydrolyzed via acid hydrolysis and glucose content was measured.
To observe how GWDs can be utilized to enhance starch utilization, native Arabidopsis starch was first treated with combinations of BAM3, ISA3, St-GWD, and At-SEX4. a high-speed spin was performed to remove the undigested starch, any remaining oligo-saccharides were hydrolyzed, and glucose released into the supernatant was measured (FIG. 7). Glucose was only released upon addition of amylases.
Native Arabidopsis starch was treated with combinations of BAM3, ISA3, StGWD, and AtSEX4, performed a high-speed spin to remove the undigested starch, hydrolyzed any remaining oligo-saccharides, and measured glucose released into the supernatant (FIG. 7). Glucose was only released upon addition of amylases, as expected.

OC[C@H]1O[C@H](O[C@H]2[C@H](O)[C@@H](O)[C@@H](O[C@H]3[C@H](O)[C@@H](O)[C@@H](O[C@H]4[C@H](O)[C@@H](O)[C@@H](O[C@H]5[C@H](O)[C@@H](O)[C@@H](O[C@H]6[C@H](O)[C@@H](O)C(O)O[C@@H]6CO)O[C@@H]5CO)O[C@@H]4CO)O[C@@H]3CO)O[C@@H]2CO)[C@H](O)[C@@H](O)[C@@H]1O (some centres unmarked) [maltohexaose]
Kd ([1]; change in Tm with increasing concentration of oligosaccharide, apparent dissociation constant): 7 mM

OC[C@H]1O[C@H](O[C@H]2[C@H](O)[C@@H](O)C(O)O[C@@H]2CO)[C@H](O)[C@@H](O)[C@@H]1O (some centres unmarked) [maltose]
stabilization (change in Tm) ([1]; increasing concentration of oligosaccharide, negative control): No stabilization

Cm-GWD: full length Cyanidioschyzon merolae glucan, water dikinase, amino acids 1-1572
activity compared with At-GWD and At-PWD ([2]; FIG. 2): between that of At-GWD and At-PWD | ability to phosphorylate starch (specific activity) [2]: robust specific activity

NcCBM20-AtPWD: CBM20 of Neurospora crassa NCU08746 fused N-terminally to the dikinase domain of PWD
phosphorylation of starch by chimeric CBM-dikinase ([2]; phosphate-less Arabidopsis (sex1-3) starch or potato starch, FIG. 11A): robustly phosphorylated starch | priming of starch for phosphorylation by wild-type AtPWD ([2]; sex1-3 starch pretreated with the enzyme, FIG. 11B): served to prime wild-type AtPWD; also recorded: to a greater extent than starch pretreated with wild-type StGWD

B1: truncated Cm-GWD construct (residues 511-1572): truncated Cm-GWD encoding the second predicted CBM and catalytic dikinase domain (protein)
chain: MTILGLERRSLDDDGETVICFSVEEDGFALRVHADLSPLVIHWGIARHRVTEFLQPDESLAVETKGRTYRFENKAMRTEFVPDEHHQGTYYAEIHLKKEHAPRAVTFVLFNPELNRWYRAEGGGNFVLRMDLESFSQLPGSVGKHEDVAQKIIEVEVEYGSWTLMHRYNLANDILRNSMSALDADLLQIVFVWLRYSFLRQLDWQRSYNTQPRLLAHAQEQLTTTLAQVFVSRPDLRLWVRLCLSMLGRGGGNGQRIRDDILRIMHKHHIPETPGHFMEQWHQKLHNNTTPDDVAICESYLAFLRSNGDKNVFYETLQKHGVTKERLASYERPIFAEVQTYPCDTNSLIHDFEEYLHVLKSVHSGTDLAVVLDYARWTLDQELISKVEHIQSVRAELMASPQGALEFSFLIAEARKMLQSTLEHVEDPTRVRDMLFLDLALDELARLAVESQGLADYVAETDVQKACNLLVVLAQHVGWSMLSSAFLETSYDLAALVYGIQSDVQLQEPDFGLRLYATMERLMDCVGHDVVERLHHDVQPKAVYIGVGCNIDQKVVTLFSEELIRGQAAFALAQVLRPLMRNIRKQANLGNWQVISPGSCTGQGAVFDELLSIQYKTFAEPTVAFVRRISGEEEIPTGMVGLITTDTLDILSHCAVRARNEHVVLACCFSEELFDQLTERFRGAWVAVRSLTDGSLDFQPIQEGAGRTTAADTTDGASEHAQRRAVSMRSDIEKKPVKSVLGIAQFNTQRGGSKSNSLAKLIRVIPDWIHIPPCALLPFGVCEQVLAEAQNSDVGERFQQLMAELDGKGPTDDCSALLARLRHCVRQLAPSDTFMKELQQVLQHEGFHSIDNLDMRRAWECILDVWASKFNDRAFLALRKAGAVGKTSLSSLYMAVLVQEVVPADYAFVLHTKNPFTGEPSEIYGELVHGLGEVLVGNYPGRALGFTYSKSTGQVRVCNYPSKTKALIPRGGLIFRSDSNGEDLEDFAGAGLFDSILMQPAEEVVVRYRELKILQDKAYLERILSKIGKCGIEIESNCGNKPQDIEGCICGEDVYVVQSRDQV
modifications: Fragment of Cyanidioschyzon merolae GWD polypeptide
notes: truncated Cm-GWD encoding the second predicted CBM and catalytic dikinase domain
ability to phosphorylate starch (specific activity) [2]: active glucan dikinase

B2: Cm-GWD H1162A: active site mutant (H1162A) of Cm-GWD 511C fragment (protein)
chain: B1 chain with H653A
modifications: Fragment of Cyanidioschyzon merolae GWD polypeptide
ability to phosphorylate starch (specific activity) [2]: lacked activity

B3: SEX4: Arabidopsis glucan phosphatase Starch EXcess4 (protein, UniProt Q9FEB5 55-379, looked up)
Phosphoglucan phosphatase …: SESKSSSEMSGVAKDEEKSDEYSQDMTQAMGAVLTYRHELGMNYNFIRPDLIVGSCLQTPEDVDKLRKIGVKTIFCLQQDPDLEYFGVDISSIQAYAKKYSDIQHIRCEIRDFDAFDLRMRLPAVVGTLYKAVKRNGGVTYVHCTAGMGRAPAVALTYMFWVQGYKLMEAHKLLMSKRSCFPKLDAIRNATIDILTGLKRKTVTLTLKDKGFSRVEISGLDIGWGQRIPLTLDKGTGFWILKRELPEGQFEYKYIIDGEWTHNEAEPFIGPNKDGHTNNYAKVVDDPTSVDGTTRERLSSEDPELLEEERSKLIQFLETCSEAEV
effect on glucose release when added to amylases ([3]; BAM3, ISA3, 25° C., 60 minutes, FIG. 7): did not enhance glucose release on its own | effect on glucose release when used with AtGWD ([3]; amylases plus AtGWD plus SEX4 (full starch phosphorylation cycle)): more than doubling | effect on glucose release when used with St-GWD ([3]; amylases plus St-GWD plus SEX4 (full starch phosphorylation cycle)): more than doubling
